Reference: IntAct's records for PubMed 24036454

B1: Protein GLUTAMINE DUMPER 1 (Arabidopsis thaliana (Mouse-ear cress)), O81775 (parent)
chain: MRPLSVQSKFEDVATSTSVNHHGVTPQSPWHSPVPYLFGGLAAMLGLIAFALLILACSYWRLSSSGEEDGQNVDEEKESRSGDKAANGAYEEKFLVIMAGEDLPRYLATPAMKKCTCGGHEGKMVISQEESVAKEEEKMREGEEEKVKDTGETTTTSH
partner: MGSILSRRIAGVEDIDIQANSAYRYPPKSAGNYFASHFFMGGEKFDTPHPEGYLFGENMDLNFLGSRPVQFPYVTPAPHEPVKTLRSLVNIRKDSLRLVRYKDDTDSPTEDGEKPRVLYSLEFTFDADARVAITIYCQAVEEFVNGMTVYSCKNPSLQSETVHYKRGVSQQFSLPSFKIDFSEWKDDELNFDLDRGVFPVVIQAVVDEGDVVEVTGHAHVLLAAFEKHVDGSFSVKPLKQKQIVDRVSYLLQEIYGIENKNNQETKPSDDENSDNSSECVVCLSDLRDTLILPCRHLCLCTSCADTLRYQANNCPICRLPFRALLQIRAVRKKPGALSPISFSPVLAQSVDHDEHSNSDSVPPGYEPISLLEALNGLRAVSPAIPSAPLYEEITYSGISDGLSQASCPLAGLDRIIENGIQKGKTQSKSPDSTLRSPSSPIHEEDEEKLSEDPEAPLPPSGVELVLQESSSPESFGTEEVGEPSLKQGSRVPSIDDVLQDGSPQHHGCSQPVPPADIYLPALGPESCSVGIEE
B2: Protein GLUTAMINE DUMPER 1 (Arabidopsis thaliana (Mouse-ear cress)), O81775 (parent)
chain: B1 chain
partner: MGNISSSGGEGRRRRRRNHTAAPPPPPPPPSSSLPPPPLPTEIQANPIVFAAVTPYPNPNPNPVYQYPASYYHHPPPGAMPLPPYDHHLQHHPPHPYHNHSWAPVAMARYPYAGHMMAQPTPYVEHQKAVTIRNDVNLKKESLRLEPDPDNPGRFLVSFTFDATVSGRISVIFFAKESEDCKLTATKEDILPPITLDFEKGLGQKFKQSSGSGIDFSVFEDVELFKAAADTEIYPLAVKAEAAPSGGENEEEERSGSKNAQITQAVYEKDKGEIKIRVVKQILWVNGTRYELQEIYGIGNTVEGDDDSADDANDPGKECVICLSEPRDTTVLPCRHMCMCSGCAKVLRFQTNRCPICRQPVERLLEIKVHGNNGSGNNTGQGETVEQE

Variants of: B1
Conditions: with mgrn1_rat Mgrn1, Q5XIQ4
MRPLSVQSKFEDVATSTSVNHHGVTPQSPWHSPVPYLFGGLAAMLGLIAFALLILACSYWRLSSSGEEDGQNVDEEKESRSGDKAANGAYEEKFLVIMAREDLPRYLATPAMKKCTCGGHEGKMVISQEESVAKEEEKMREGEEEKVKDTGETTTTSH [G100R] was tested, and the “effect of a mutation on the interaction” value was “disrupting interaction”.

Variants of: B2
Conditions: with lofg2_arath LOG2, Q9S752
MRPLSVQSKFEDVATSTSVNHHGVTPQSPWHSPVPYLFGGLAAMLGLIAFALLILACSYWRLSSSGEEDGQNVDEEKESRSGDKAANGAYEEKFLVIMAREDLPRYLATPAMKKCTCGGHEGKMVISQEESVAKEEEKMREGEEEKVKDTGETTTTSH [G100R] was tested, and the “effect of a mutation on the interaction” value was “disrupting interaction”.

Variants of: B2
Conditions: with lofg2_arath LOG2, Q9S752
Remark: another data set of the same source
For MRPLSVQSKFEDVATSTSVNHHGVTPQSPWHSPVPYLFGGLAAMLGLIAFALLILACSYWRLSSSGEEDGQNVDEEKESRSGDKAANGAYEEKFLFFFFFEDLPRYLATPAMKKCTCGGHEGKMVISQEESVAKEEEKMREGEEEKVKDTGETTTTSH [V96F;I97F;M98F;A99F;G100F], the “effect of a mutation on the interaction” value was “disrupting interaction”.
